Our source for the % of cells within gate values is patent US20200017880A1.

Assay [1] has as its target CD3 on Jurkat cells and on PBMCs (UniProt P07766). Briefly: flow cytometry; second Fab-multimer staining of PBMCs that had been stained reversibly, treated with D-biotin and washed (control panel, far right). On the technique in general: In flow cytometry, cells or beads pass a laser one at a time.
Assay [2] deals with CD28 on cells (PBMCs, T responder cells) (human) (UniProt P10747). Briefly: flow cytometry; Fab monomers remaining on the liberated CD28+ cells after D-biotin and washing, detected with an antibody against the immunoglobulin kappa light chain.

Chain of UniProt P07766 (P07766 23-207): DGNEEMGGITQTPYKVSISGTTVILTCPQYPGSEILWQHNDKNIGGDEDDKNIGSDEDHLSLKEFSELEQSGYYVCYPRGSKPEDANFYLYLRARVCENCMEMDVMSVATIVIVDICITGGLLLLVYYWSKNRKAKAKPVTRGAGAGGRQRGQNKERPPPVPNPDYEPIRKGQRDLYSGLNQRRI

As to “OKT3 Fab fragments multimerized by reversible binding to soluble Strep-Tactin conjugated with phycoerythrin”, the % of cells within gate in assay [1] worked out at 64.7%.

In the case of “anti-CD28 Fab fragment derived from antibody CD28.3, heavy chain C-terminally fused to Twin-Strep-tag (monomeric Fab)”, in assay [2], the % of cells within gate amounted to 5.91%.
